Measured values taken from patent publication US7618943B2, “Fusion polypeptides, and use thereof in antivascular tumor therapy” (Oncoscience AG, priority 2003, dated 2009).
Entries after “also recorded” stand apart in the source; their conditions may differ.

Experiments:
[1] = system: normal tissue such as heart, kidney, liver and lung; conditions: mouse, in vivo
tumor blood vessels = experiment: Macroscopy and histology of tumors after injection (thrombosis induction in tumor vessels, necrosis); type: in vivo, mice
Procedure: FIG. 9: Macroscopic in vivo photograph of a tumor-bearing mouse 20 min after injection of the tTF-NGR fusion protein (A, left half of the picture) or NaCl (A, right half of the picture). […] After 60 min, the two mice were exsanguinated, the tumor was excised in toto and examined histologically. […] In contrast, the NaCl-treated tumor appears to be vital (C).
FIG. 10: Histology of the melanoma tumor 1 hour after intravenous injection of tTF-RGD (A and B), tTF-NGR (C and D) and common salt (E and F) in the caudal vein of the tumor-bearing nude mouse. […] The photographs are of representative areas of the tumors (A, C and E: 200× magnification, B, D and F 400× magnification; HE staining (staining described e.g. in H. C. Burck, Histologische Technik-Leitfaden für die Herstellung mikroskopischer Präparate in Unterricht und Praxis, 5th edition, Thieme Verlag, Stuttgart 1982, pages 109 ff.).
FIG. 35: Macrograph of a mouse bearing an M21 tumor at the end of treatment (day 7) with tTF-RGD fusion protein (A, C) or NaCl (B, D).
To verify the mechanism of action of thrombosis induction in tumor vessels, the following experiment was carried out: the human melanoma cell line was injected into the flank of two male BALB/c nude mice. On attaining a tumor size of approx. 500 mm^3, 2.0 mg/kg BW tTF-NGR or NaCl was injected into the caudal vein. […] After 60 min the mice were exsanguinated, the tumor was excised in toto and investigated histologically. […] In contrast, the tumor treated with NaCl appears to be vital (FIG. 9C).

[2] = system: human fibrosarcoma (HT1080); experiment: HT1080 fibrosarcoma xenograft in BALB/c nude mice, intravenous therapy; type: in vivo
Excerpt: b: Inhibition of a human fibrosarcoma (HT1080) growing as a xenograft in athymic nude mice by intravenous therapy with tTF fusion proteins (tTF-RGD, n=12) compared with the growth of the tumors with infusion of physiological saline solution (NaCl, n=15) or tTF (n=14). The vertical arrows indicate the times of the injections with the respective substances.
The antitumor activity of the tTF-RGD fusion protein was also investigated in BALB/c nude mice with fibrosarcomas (HT1080). These tumors grow rapidly and are well-vascularized. […] This effect lasted until the end of the experiment on day 7 (P=0.021 for tTF-RGD relative to the buffer control (physiological saline solution), P=0.005 for tTF-RGD relative to tTF).

human endothelial cells = experiment: FACS binding of biotinylated proteins to endothelial cells in suspension; type: cell-based; conditions: 0.1 μM, 60 min at 4° C., streptavidin-phycoerythrin detection
Procedure: FIG. 6: Binding of tTF and tTF-RGD to human endothelial cells. A: FACS analysis of endothelial cells incubated with 0.1 μM tTF (2) or with 0.1 μM tTF-RGD (3) for 60 min at 4° C. […] Curves 1 in A and B show the negative control.
Next the specific binding of tTF-RGD to αvβ3 on endothelial cells was evaluated. For this, the differential binding of biotinylated tTF and tTF-RGD to endothelial cells in suspension was analysed by FACS (Fluorescence Activated Cell Sorting). The fact that all endothelial cells held in tissue culture are activated, i.e. express αvβ3 molecules, is utilized experimentally. This can be detected by various immunohistochemical methods. A cultivated endothelial cell thus corresponds, in relation to its expression pattern with respect to αvβ3 to a tumor endothelial cell. Accordingly, a cultivated endothelial cell can be used as a model system for the specific binding of substances to tumor endothelial cells and also permits predictions to be made concerning the expected toxicity.
Streptavidin-phycoerythrin was used as the detection method. The measured fluorescence intensity for tTF-RGD was higher by a factor of 8 than for tTF (FIG. 6A). Furthermore, the binding of 0.1 μM tTF-RGD to endothelial cells was lowered competitively by 75% by the administration of 1 μM of the synthetic peptide GRGDSP (SEQ ID NO:33) (FIG. 6B). […]

integrin αvβ3 = integrin αvβ3 (Homo sapiens, UniProt P05106+P06756); experiment: ELISA binding to immobilized purified αvβ3; conditions: 0.1 μM protein, immobilized αvβ3
integrin αvβ3, sequence (P06756 31-889 limits assumed): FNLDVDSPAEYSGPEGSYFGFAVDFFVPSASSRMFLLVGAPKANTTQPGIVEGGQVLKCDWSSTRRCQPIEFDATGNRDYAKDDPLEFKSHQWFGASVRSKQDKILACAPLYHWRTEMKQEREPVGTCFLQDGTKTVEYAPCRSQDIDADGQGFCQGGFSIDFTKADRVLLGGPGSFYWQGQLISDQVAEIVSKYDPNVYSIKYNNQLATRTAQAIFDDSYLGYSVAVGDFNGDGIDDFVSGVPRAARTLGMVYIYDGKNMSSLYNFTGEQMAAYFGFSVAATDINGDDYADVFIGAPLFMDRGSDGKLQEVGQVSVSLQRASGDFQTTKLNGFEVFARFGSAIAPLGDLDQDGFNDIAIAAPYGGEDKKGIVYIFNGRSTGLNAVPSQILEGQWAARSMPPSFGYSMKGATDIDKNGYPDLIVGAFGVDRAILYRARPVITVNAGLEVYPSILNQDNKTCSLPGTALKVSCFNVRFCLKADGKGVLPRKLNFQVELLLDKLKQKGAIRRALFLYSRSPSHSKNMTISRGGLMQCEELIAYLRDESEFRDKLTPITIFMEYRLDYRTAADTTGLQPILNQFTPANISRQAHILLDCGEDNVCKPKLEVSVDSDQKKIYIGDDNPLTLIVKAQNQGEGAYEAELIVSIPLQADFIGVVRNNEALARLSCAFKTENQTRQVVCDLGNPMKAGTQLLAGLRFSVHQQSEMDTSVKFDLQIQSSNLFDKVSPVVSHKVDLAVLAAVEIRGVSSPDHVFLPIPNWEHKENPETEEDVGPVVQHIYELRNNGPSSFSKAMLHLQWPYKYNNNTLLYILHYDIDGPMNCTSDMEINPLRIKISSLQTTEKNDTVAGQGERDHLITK
integrin αvβ3, sequence (P06756 891-1048 limits assumed): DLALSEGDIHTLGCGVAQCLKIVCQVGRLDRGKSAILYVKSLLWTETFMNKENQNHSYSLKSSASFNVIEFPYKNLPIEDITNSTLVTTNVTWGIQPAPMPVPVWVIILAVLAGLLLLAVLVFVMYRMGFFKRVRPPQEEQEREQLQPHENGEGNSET
integrin αvβ3, sequence (P05106 27-788): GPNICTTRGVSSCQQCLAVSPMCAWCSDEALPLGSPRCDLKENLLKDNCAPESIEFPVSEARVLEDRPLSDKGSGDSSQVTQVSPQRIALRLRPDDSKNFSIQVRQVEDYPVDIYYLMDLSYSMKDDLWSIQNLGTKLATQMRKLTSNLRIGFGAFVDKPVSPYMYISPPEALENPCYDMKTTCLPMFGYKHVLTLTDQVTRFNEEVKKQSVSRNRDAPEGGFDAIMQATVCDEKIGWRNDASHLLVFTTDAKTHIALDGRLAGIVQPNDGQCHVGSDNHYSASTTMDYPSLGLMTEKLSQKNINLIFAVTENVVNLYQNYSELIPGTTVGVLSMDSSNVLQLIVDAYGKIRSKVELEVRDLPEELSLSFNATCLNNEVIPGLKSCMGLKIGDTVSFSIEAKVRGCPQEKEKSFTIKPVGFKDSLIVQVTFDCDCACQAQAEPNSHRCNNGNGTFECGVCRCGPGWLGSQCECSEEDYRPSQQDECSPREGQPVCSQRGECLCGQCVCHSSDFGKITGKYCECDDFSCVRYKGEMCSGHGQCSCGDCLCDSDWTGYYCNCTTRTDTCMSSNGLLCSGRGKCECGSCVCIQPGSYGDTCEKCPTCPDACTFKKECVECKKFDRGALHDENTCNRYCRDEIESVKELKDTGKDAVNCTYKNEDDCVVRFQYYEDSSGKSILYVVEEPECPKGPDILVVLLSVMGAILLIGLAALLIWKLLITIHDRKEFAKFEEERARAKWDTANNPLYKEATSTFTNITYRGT
Procedure: FIG. 4: Binding of tTF, tTF-RGD and tTF-NGR to integrin αvβ3. The binding of 0.1 μM tTF, tTF-RGD and tTF-NGR to immobilized αvβ3 was quantified with a polyclonal antibody against human TF (American Diagnostica) in an ELISA. The results are presented as median and interquartile range. The differences in binding between tTF-RGD and tTF or between tTF-NGR and tTF were statistically significant (p<0.001, Mann-Whitney test).

[3] = system: human lung carcinoma (CCL185); experiment: CCL185 lung carcinoma xenograft in athymic nude mice, intravenous therapy; type: in vivo
Excerpt: FIG. 7: Inhibition of a human lung carcinoma (CCL185) growing as a xenograft in athymic nude mice by intravenous therapy with tTF fusion proteins (tTF-RGD, n=6; tTF-NGR, n=6) compared with tumor growth with infusion of physiological saline solution (NaCl, n=8) or tTF (n=1). The vertical arrows indicate the times of injection with the respective substances.
c: Inhibition of a human lung carcinoma (CCL185) growing as a xenograft in athymic nude mice by intravenous therapy with tTF fusion proteins (tTF-RGD, n=11) compared with the growth of the tumors in infusion of physiological saline solution (NaCl, n=10) or tTF (n=5). The vertical arrows indicate the times of the injections with the respective substances.
(§1) The tTF-RGD and tTF-NGR fusion proteins were evaluated with respect to their effects and side-effects on xenografts of human tumors in athymic nude mice. The models established in our laboratory were used for this (33, 34). The cell lines CCL185 (human adenocarcinoma of the lung) and M-21 (human melanoma) were injected subcutaneously into the flank of male BALB/c nude mice (9-12 weeks old). On attaining a tumor volume of about 50-100 mm^3 (CCL185) or 400-600 mm^3 (M−21), the mice were assigned to four groups at random. Group 1 received only physiological saline solution (NaCl), group 2 tTF, group 3 tTF-RGD, and group 4 tTF-NGR (in each case 1.5-2.0 mg/kg body weight (BW) of the protein). The injections were made in the caudal vein of the animals at intervals of 1-3 days (depending on the growth rate of the particular cell line). Considerable therapeutic activity of the fusion proteins was observed.

[4] = system: human malignant melanoma (M21); experiment: M21 melanoma xenograft in athymic nude mice, intravenous therapy; type: in vivo
Procedure: The vertical arrows indicate the times of injection with the respective substances.
The vertical arrows indicate the times of the injections with the respective substances.
as §1

[5] = melanoma tumor 1 hour after intravenous injection, HE staining

B1: tTF-RGD: fusion polypeptide tTF-GRGDSP (SEQ ID NO:3), peptide coupled to C-terminus of tTF (protein)
chain: SGTTNTVAAYNLTWKSTNFKTILEWEPKPVNQVYTVQISTKSGDWKSKCFYTTDTECDLTDEIVKDVKQTYLARVFSYPAGNVESTGSAGEPLYENSPEFTPYLETNLGQPTIQSFEQVGTKVNVTVEDERTLVRRNNTFLSLRDVFGKDLIYTLYYWKSSSSGKKTAKTNTNEFLIDVDKGENYCFSVQAVIPSRTVNRKSTDSPVECMGQEKGEFRGRGDSD
modifications: Amino acid sequence of tTF-GRGDSP
H-E staining of heart, lung, liver and kidney (thrombosis, necrosis) [1]: did not show any visible thrombosis or necrosis | H-E staining of tumors: thrombosis and necrosis (tumor blood vessels; FIG. 36, treated mice): Severe thrombosis and necrosis of tumor cells | macroscopic appearance of tumor at the end of treatment (tumor blood vessels; M21 tumor, day 7): clear signs of necrosis | histology of tumor blood vessels (thrombus formation) (tumor blood vessels; [5]): blood vessels appear to be thrombolytically occluded | histology: tumor necrosis in supply region of occluded vessel (tumor blood vessels; [5]): Extensive tumor necroses | Mean tumor volume Day 0 ([2]; HT1080 tumors, Day 0 (baseline)): 1725 ± 197 mm^3 | Mean tumor volume Day 7 ([2]; HT1080 tumors, Day 7): 1241 ± 122 mm^3 | effect on tumor growth ([2]; HT1080 xenograft, intravenous therapy, compared with control groups): significant inhibition of growth; also recorded: partial regression of tumor volume | measured fluorescence intensity, factor higher than for tTF (human endothelial cells): 8 | binding to the αvβ3 integrin in ELISA (integrin αvβ3): demonstrated | Mean tumor volume Day 0 ([3]; CCL185 tumors, Day 0 (baseline)): 45 ± 5 mm^3 | Mean tumor volume Day 7 ([3]; CCL185 tumors, Day 7): 130 ± 19 mm^3 | effect on tumor growth ([3]; CCL185 xenograft, intravenous therapy, compared with NaCl or tTF): Inhibition | Mean tumor volume Day 0 ([4]; M21 tumors, Day 0 (baseline)): 585 ± 85 mm^3 | Mean tumor volume Day 7 ([4]; M21 tumors, Day 7): 514 ± 81 mm^3 | effect on tumor growth ([4]; M21 xenograft, intravenous therapy, compared with NaCl or tTF): Inhibition and partial remission
